From US20040014207A1

Biological target: murine B7-DC (murine) (UniProt Q9WUL5)
Test: flow cytometry competition; murine bone marrow derived dendritic cells preincubated with PD-1.Ig, then stained with sHIgM12

PD-1.Ig fusion protein (Fc fusion), sequence (Q02242 25-169): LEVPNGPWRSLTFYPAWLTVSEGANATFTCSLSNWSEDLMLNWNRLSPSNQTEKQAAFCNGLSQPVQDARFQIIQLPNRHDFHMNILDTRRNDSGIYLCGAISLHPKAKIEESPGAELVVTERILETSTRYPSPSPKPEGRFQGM
murine B7-DC (murine), sequence (Q9WUL5 20-247): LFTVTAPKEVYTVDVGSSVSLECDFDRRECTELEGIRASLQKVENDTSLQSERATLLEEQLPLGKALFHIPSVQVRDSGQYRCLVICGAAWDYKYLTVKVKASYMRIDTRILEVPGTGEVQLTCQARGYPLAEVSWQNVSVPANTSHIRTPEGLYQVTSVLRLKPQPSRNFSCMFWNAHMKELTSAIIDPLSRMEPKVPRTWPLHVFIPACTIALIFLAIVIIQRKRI

- sHIgM12 staining remaining, percent of the level in the absence of PD-1: 50%
Substance: PD-1.Ig fusion protein (Fc fusion)
